Laboratory results reported in PMC10395824 (PLOS Pathogens, 2023).

Molecular target: SARS-CoV-2 S1 RBD2 (Wuhan RBD, S-protein amino acids 319-541) (SARS-CoV-2 Wuhan, UniProt P0DTC2)
Assay: […] (150 mM NaCl, 20 mM Tris pH 7.5); […], MES pH 5.5, […]
Settings: both partners purified

B1: Fab ICO-hu23 (Fab, V domains shown)
VH: EVQLVQSGAEVKKPGASVKVSCKASGYTFTGYYFHWVRQAPGQGLEWMGWINPISGGTKYAQKFQGWVTMTRATSISTVYMEVSRLRSDDTAVYYCARGHTYNWNYAYCDYWGQGTLVTVSS
VL: SYVLTQPASVSGSPGQSITISCTGTSSDVGVYNYVSWYQQHPGKAPKLMIYDVSNRPSGVSNRFSGSKSGNTASLTISGLQAEDEADYYCSSYTSSSTLVFGGGTKLTVL
binding result: binds
